Columns and labels:
[1] = molecular target: T1, TGFβ2 (transforming growth factor beta 2) (Homo sapiens) (UniProt P61812); assay: filter; conditions: 2'-F C and U
T1 sequence: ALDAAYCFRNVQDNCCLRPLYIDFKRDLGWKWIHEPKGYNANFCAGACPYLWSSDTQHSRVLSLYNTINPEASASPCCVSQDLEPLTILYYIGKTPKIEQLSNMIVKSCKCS

[2] = molecular target: T2, TGFβ3 (transforming growth factor beta 3) (Homo sapiens) (UniProt P10600); assay: filter; conditions: 2'-F C and U; round 0 pool
T2 sequence: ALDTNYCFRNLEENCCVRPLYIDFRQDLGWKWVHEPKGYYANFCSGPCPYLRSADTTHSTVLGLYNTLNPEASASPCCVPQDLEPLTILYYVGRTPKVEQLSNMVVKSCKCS

Sequence | Kd ([1]; biased round 0 pool, protein excess) [µM] | Kd ([1]; round 0 pool, printed as >10 [M) [µM] | Kd [2] [µM]
GGGAGGACGAUGCGGNNNNNNNNNNNNNNNNNNNNNNNNNNNNNNNNNNCAGACGACUCGCCCGA [34N7.21a-21 biased round 0 pool] | 0.87 | – | –
GGGAGGACGAUGCGGNNNNNNNNNNNNNNNNNNNNNNNNNNNNNNNNNNNNNNNNCAGACGACUCGCCCGA [round 0 40N7 pool] | – | > 10 | > 10

Source: patent US20040258656
